Ends that are not written are not given here.
T1: LSALT phage (T7 phage displaying the LSALT peptide LSALTPSPSWLKYKAL) (also: displayed on T7 phage, fused to the coat protein)
T1 construct: The peptide is not naturally occurring; it is the out-of-frame product of Ube2n; also called Ube2n (LSALT) phage; LSALT-bacteriophage
T1 peptide: LSALTPSPSWLKYKAL

B1: EQFTNLLDMTYA (SEQ ID NO: 5) (peptide)
peptide: EQFTNLLDMTYA
notes: also called putative target of LSALT
B2: PTLPWKK (SEQ ID NO: 10) (peptide)
peptide: PTLPWKK
notes: as for B1
B3: LNTQTGK (SEQ ID NO: 15) (peptide)
peptide: LNTQTGK
notes: as for B1
B4: FEQKKGT (SEQ ID NO: 8) (peptide)
peptide: FEQKKGT
notes: as for B1
B5: NERNSWH (SEQ ID NO: 16) (peptide)
peptide: NERNSWH
notes: as for B1
B6: LGPAHLY (SEQ ID NO: 13) (peptide)
peptide: LGPAHLY
notes: as for B1
B7: GLHNKTH (SEQ ID NO: 14) (peptide)
peptide: GLHNKTH
notes: as for B1
B8: HATGTHGLSLSH (SEQ ID NO: 6) (peptide)
peptide: HATGTHGLSLSH
notes: as for B1
B9: EQFTNLLDMYTA (SEQ ID NO: 3) (peptide)
peptide: EQFTNLLDMYTA
notes: as for B1
B10: DNTRVDT (SEQ ID NO: 9) (peptide)
peptide: DNTRVDT
notes: as for B1
B11: HLPSIIPTMPYR (SEQ ID NO: 2) (peptide)
peptide: HLPSIIPTMPYR
notes: as for B1
B12: MNVTPRQ (SEQ ID NO: 11) (peptide)
peptide: MNVTPRQ
notes: as for B1
B13: IPPSYSATLPALR (SEQ ID NO: 4) (peptide)
peptide: IPPSYSATLPALR
notes: as for B1
B14: TNITESQQLNWR (SEQ ID NO: 7) (peptide)
peptide: TNITESQQLNWR
notes: as for B1
B15: TTEHPRK (SEQ ID NO: 12) (peptide)
peptide: TTEHPRK
notes: as for B1

Biological target: T1, LSALT phage (T7 phage displaying the …)
Assay: biopanning of a combinatorial M13 phage library against LSALT phage immobilized on nitrocellulose
Excerpt: When the LSALT phage was immobilized on nitrocellulose and biopanned against with a combinatorial M13 phage library, the following peptides were isolated as peptides that bind specifically with the LSALT. These peptides provide potential targets for action of LSALT peptides, variants and modifications thereof.

Binding result, binds:
B1
B2
B3
B4
B5
B6
B7
B8
B9
B10
B11
B12
B13
B14
B15
